One assay addresses T1, RACK1 (Rattus norvegicus, UniProt P63245).
T1 construct: an open reading frame of 317 amino acids from the putative translation start site of pRACK1; made in house; host or cells: TB1 E. coli (RACK1); PKC mixture from rat brain
Kind of assay: Overlay assay: concentration dependence of PKC binding to recombinant RACK1. The settings on record: βPKC in the presence of other PKC isozymes, n=3. The protocol: Purified recombinant RACK1 protein (100-250 μg per lane, produced as detailed in Example 2) was subjected to SDS/PAGE and blotted onto nitrocellulose membranes (Ausubel). The nitrocellulose membranes were cut into strips, which were incubated for 0.5 hr in overlay buffer (Example 1) in the presence or absence of a mixture of PKC isozymes (α, β, γ, δ, ε and ζ, ˜10 nM each final concentration) and PKC activators (60 μg/ml phosphatidylserine (PS), 2 μg/ml diacylglycerol (DG), and 1 mM CaCl2). Unbound material was removed by five washes, 5-min each, in overlay wash buffer. Where indicated, PKC activators were present during the incubation of PKC with the nitrocellulose strips. The conditions for each sample and corresponding results are presented in part D below.
PKC bound to RACK1 immobilized on nitrocellulose strips was detected as follows. […]
The concentration dependence of PKC binding to RACK1 was characterized with βPKC , since this isozyme is a major component of the PKC mixture used for the overlay assay. The mean half maximal binding was ˜0.375 nM, and maximal binding was ˜4 nM (n=3; values reflect binding of βPKC isozyme in the presence of other PKC isozymes and was determined by scanning autoradiograms in the linear range of detection, as described in Mochly-Rosen, et al., (1991).

In assay [1] the target is mixture of rat brain PKC isozymes (α, β, γ, δ, ε and ζ) (rat). Kind of assay: overlay plus overlay-extraction assay; 10 µM peptide preincubated with PKC isozyme mixture (~10 nM each); immobilized RACK1.
Assay [2] shares this target. Put plainly: cell-based or functional assay.
The target of assay [3] is T2, βPKC (rat brain protein kinase C, β isozyme) (rat, UniProt P68403 2-671).
T2 construct: also called beta PKC; βPKC isozyme
Kind of assay: slot-blot PKC overlay of immobilized peptide, with PS, DG and calcium, anti-βPKC detection.

For “βPKC: β isozyme of protein kinase C, major component of the rat brain PKC mixture”, the “maximal binding to RACK1” value in the assay with RACK1 was approximately 4 nM. The Kd with RACK1 (read-out: mean half maximal binding to RACK1) is approximately 0.375 nM.

As to KGDYEKILVALCGGN [peptide I], the % inhibition of PKC binding to recombinant RACK1 in assay [1] is 81%.

In the case of DIINALCF [peptide rVI], in assay [2], the PKC autophosphorylation in the absence of PKC activators was more than 80%.

In the case of LKGKIL [control peptide], the binding result in assay [3] is reported as “no binding”.
